Source: PMC7335789, “Bifurcated binding of the OmpF receptor underpins import of the bacteriocin colicin N into Escherichia coli” (The Journal of Biological Chemistry, 2020)
Ends that are not written are not given here.

T1: OmpF on E. coli cells (E. coli (endogenous in JW2203-1, …, UniProt P02931 23-362))
T1 sequence (looked up): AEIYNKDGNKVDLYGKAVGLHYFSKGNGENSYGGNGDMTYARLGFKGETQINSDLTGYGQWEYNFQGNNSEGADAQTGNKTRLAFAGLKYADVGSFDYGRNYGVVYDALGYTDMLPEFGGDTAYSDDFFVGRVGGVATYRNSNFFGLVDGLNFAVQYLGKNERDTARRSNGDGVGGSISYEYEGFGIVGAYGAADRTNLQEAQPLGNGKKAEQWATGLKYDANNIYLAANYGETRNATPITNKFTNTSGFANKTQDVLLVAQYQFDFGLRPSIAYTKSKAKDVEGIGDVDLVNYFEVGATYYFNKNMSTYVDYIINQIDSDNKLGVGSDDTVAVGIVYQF

B1: OmpF (natural protein, E. coli (endogenous in B^E3000), UniProt P02931 23-362, looked up)
chain: T1 sequence (looked up)
notes: also called OmpF trimer; purified OmpF lacking LPS
B2: ColN^1-185 (ColN without the pore forming domain) (domain or fragment)
chain: MGSNGADNAHNNAFGGGKNPGIGNTSGAGSNGSASSNRGNSNGWSWSNKPHKNDGFHSDGSYHITFHGDNNSKPKPGGNSGNRGNNGDGASAKVGEITITPDNSKPGRYISSNPEYSLLAKLIDAESIKGTEVYTFHTRKGQYVKVTVPDSNIDKMRVDYVNWKGPKYNNKLVKRFVSQFLLFRK
B3: ColN^1-185-mCherry (domain or fragment)
chain: B2 chain
notes: also called fluorescently labeled ColN
B4: ColN^91-185 (ColN central domain) (domain or fragment)
chain: SAKVGEITITPDNSKPGRYISSNPEYSLLAKLIDAESIKGTEVYTFHTRKGQYVKVTVPDSNIDKMRVDYVNWKGPKYNNKLVKRFVSQFLLFRK
notes: also called ColN-R
B5: ColN^2-19 peptide (peptide)
peptide: GSNGADNAHNNAFGGGKN-NH2
notes: also called ColN-OBS; ColN OBS; source: synthetic peptide, bought: Activotec

Columns and labels:
[1] = target: the molecule itself; experiment: native MS; 10 uM OmpF and 10 uM ColN in 100 mM ammonium acetate pH 6.9, 1% beta-OG, trypsin 37 C 2 h, gel filtration, OmpF fractions analysed in 200 mM ammonium acetate, 1% beta-OG
OmpF [2] = target: B1; experiment: ITC; MicroCal ITC200, 25 C, 20 mM potassium phosphate pH 6.5, 1% beta-OG; purified OmpF trimer without LPS in the cell, ColN construct or peptide in the syringe; conditions: both partners purified
OmpF [3] = target: B1; experiment: ITC; conditions: one partner purified
OmpF on E. coli cells = target: T1, OmpF on E. coli cells; experiment: widefield fluorescence microscopy of labelled cells; conditions: one partner purified

| Binder | stoichiometry N [1] | Kd (OmpF [2]) [nM] | dH (OmpF [2]) [kcal/mol] | stoichiometry N (OmpF [2]) | Kd (OmpF [3]) [nM] | dH (OmpF [3]) [kcal/mol] | binding to cells with OmpF and OmpC (BW25113) relative to OmpF-only cells (OmpF on E. coli cells) [fold] |
| --- | --- | --- | --- | --- | --- | --- | --- |
| B1 | 3 | – | – | – | – | – | – |
| B2 | – | 214 | -27.7 | 2.69 ColN^2-185/OmpF | 119 | -38.8 | – |
| B3 | – | – | – | – | – | – | ~0.5 |
| B4 | – | 14000 | -3.8 | 3.82 ColN^90-185/OmpF | – | – | – |
| B5 | – | 1400 | -17.9 | 3.67 peptide/OmpF | – | – | – |
